Target: T1, heat shock cognate protein 70 (Hsc70), recombinant, full length (mouse, UniProt P63017 1-646)
T1 construct: Hsc70 (heat shock cognate protein 70), cDNA by RT-PCR from total RNA of mouse TG cells; primers 'Hsc70 full length' from the start codon (MSKGPAV) to the stop codon (TIEEVD); some vector residues may remain; also called Full Hsc70; recombinant Hsc70; source: E. coli DH5α, pCold TF vector, purified (Ni-NTA), tag cleaved with human rhinovirus 3C protease
Assay: pull-down; purified recombinant Hsc70 and each ERM protein (20 μg/ml) mixed in PBS, 37°C 2 h, precipitated with anti-Hsc70 antibody on protein G agarose beads or beads only; detection by immunoblotting
Conditions: both partners purified

T1 sequence (P63017 whole entry): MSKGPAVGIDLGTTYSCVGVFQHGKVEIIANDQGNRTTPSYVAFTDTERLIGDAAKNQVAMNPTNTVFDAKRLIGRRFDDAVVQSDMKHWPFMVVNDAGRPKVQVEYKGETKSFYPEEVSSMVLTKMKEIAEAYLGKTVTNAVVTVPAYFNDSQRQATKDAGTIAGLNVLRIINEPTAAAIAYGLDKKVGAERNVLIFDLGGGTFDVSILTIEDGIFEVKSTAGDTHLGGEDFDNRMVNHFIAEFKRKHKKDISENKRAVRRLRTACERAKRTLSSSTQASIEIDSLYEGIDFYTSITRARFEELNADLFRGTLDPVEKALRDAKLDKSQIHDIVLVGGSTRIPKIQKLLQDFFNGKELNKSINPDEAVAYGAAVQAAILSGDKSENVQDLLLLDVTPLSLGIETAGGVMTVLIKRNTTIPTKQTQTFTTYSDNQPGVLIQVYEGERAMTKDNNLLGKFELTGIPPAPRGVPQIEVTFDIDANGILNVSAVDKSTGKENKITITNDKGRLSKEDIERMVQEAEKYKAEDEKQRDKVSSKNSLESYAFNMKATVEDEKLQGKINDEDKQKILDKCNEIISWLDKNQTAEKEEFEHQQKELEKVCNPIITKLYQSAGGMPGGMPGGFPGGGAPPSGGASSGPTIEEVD

B1: ezrin, recombinant (natural protein, mouse, UniProt P26040 1-586, looked up)
chain: MPKPINVRVTTMDAELEFAIQPNTTGKQLFDQVVKTIGLREVWYFGLQYVDNKGFPTWLKLDKKVSAQEVRKENPVQFKFRAKFYPEDVAEELIQDITQKLFFLQVKDGILSDEIYCPPETAVLLGSYAVQAKFGDYNKEMHKSGYLSSERLIPQRVMDQHKLSRDQWEDRIQVWHAEHRGMLKDSAMLEYLKIAQDLEMYGINYFEIKNKKGTDLWLGVDALGLNIYEKDDKLTPKIGFPWSEIRNISFNDKKFVIKPIDKKAPDFVFYAPRLRINKRILQLCMGNHELYMRRRKPDTIEVQQMKAQAREEKHQKQLERQQLETEKKRRETVEREKEQMLREKEELMLRLQDYEQKTKRAEKELSEQIEKALQLEEERRRAQEEAERLEADRMAALRAKEELERQAQDQIKSQEQLAAELAEYTAKIALLEEARRRKEDEVEEWQHRAKEAQDDLVKTKEELHLVMTAPPPPPPPVYEPVNYHVQEGLQDEGAEPMGYSAELSSEGILDDRNEEKRITEAEKNERVQRQLLTLSNELSQARDENKRTHNDIIHNENMRQGRDKYKTLRQIRQGNTKQRIDEFEAM
notes: ezrin, cDNA by RT-PCR from total RNA of mouse TG cells; primers from the start codon (MPKPINVR) to the stop codon (IDEFEAM); also called ERM protein; source: E. coli DH5α, pCold TF vector, purified (Ni-NTA), tag cleaved with human rhinovirus 3C protease
B1: binds.

B2: moesin, recombinant (natural protein, mouse, UniProt P26041 1-577, looked up)
chain: MPKTISVRVTTMDAELEFAIQPNTTGKQLFDQVVKTIGLREVWFFGLQYQDTKAFSTWLKLNKKVTAQDVRKESPLLFKFRAKFYPEDVSEELIQDITQRLFFLQVKEGILNDDIYCPPETAVLLASYAVQSKYGDFNKEVHKSGYLAGDKLLPQRVLEQHKLNKDQWEERIQVWHEEHRGMLREDAVLEYLKIAQDLEMYGVNYFSIKNKKGSELWLGVDALGLNIYEQNDRLTPKIGFPWSEIRNISFNDKKFVIKPIDKKAPDFVFYAPRLRINKRILALCMGNHELYMRRRKPDTIEVQQMKAQAREEKHQKQMERALLENEKKKRELAEKEKEKIEREKEELMEKLKQIEEQTKKAQQELEEQTRRALELEQERKRAQSEAEKLAKERQEAEEAKEALLQASRDQKKTQEQLASEMAELTARISQLEMARKKKESEAVEWQQKAQMVQEDLEKTRAELKTAMSTPHVAEPAENEHDEQDENGAEASAELRADAMAKDRSEEERTTEAEKNERVQKHLKALTSELANARDESKKTANDMIHAENMRLGRDKYKTLRQIRQGNTKQRIDEFESM
notes: moesin, cDNA by RT-PCR from total RNA of mouse TG cells as the methods say; primers from the start codon (MPKTISVR) to the stop codon (IDEFESM); also called ERM protein; source: E. coli DH5α, pCold TF vector, purified (Ni-NTA), tag cleaved with human rhinovirus 3C protease
B2: binds.

B3: radixin, recombinant (natural protein, mouse, UniProt P26043 1-583, looked up)
chain: MPKPINVRVTTMDAELEFAIQPNTTGKQLFDQVVKTVGLREVWFFGLQYVDSKGYSTWLKLNKKVTQQDVKKENPLQFKFRAKFFPEDVSEELIQEITQRLFFLQVKEAILNDEIYCPPETAVLLASYAVQAKYGDYNKEIHKPGYLANDRLLPQRVLEQHKLTKEQWEERIQNWHEEHRGMLREDSMMEYLKIAQDLEMYGVNYFEIKNKKGTELWLGVDALGLNIYEHDDKLTPKIGFPWSEIRNISFNDKKFVIKPIDKKAPDFVFYAPRLRINKRILALCMGNHELYMRRRKPDTIEVQQMKAQAREEKHQKQLERAQLENEKKKREIAEKEKERIEREKEELMERLRQIEEQTVKAQKELEEQTRKALELEQERQRAKEEAERLDRERRAAEEAKSAIAKQAADQMKNQEQLAAELAEFTAKIALLEEAKKKKEEEATEWQHKAFAAQEDLEKTKEELKTVMSAPPPPPPPPVIPPTENEHDEQDENSAEASAELSSEGVMNHRSEEERVTETQKNERVKKQLQALSSELAQARDETKKTQNDVLHAENVKAGRDKYKTLRQIRQGNTKQRIDEFEAM
notes: radixin, cDNA by RT-PCR from total RNA of mouse TG cells; primers from the start codon (MPKPINVR) to the stop codon (IDEFEAM); also called ERM protein
B3: binds.

From article PMC2748081 (Reproductive Biology and Endocrinology : RB&E, 2009)
